Like-named read-outs stand apart in the source and are kept apart here.
T1: PH domain of fission yeast (Schizosaccharomyces pombe) Tfb1, residues 1-108 (Schizosaccharomyces pombe, UniProt O13745 1-108)
T1 construct: General transcription and DNA repair factor IIH subunit tfb1 (spTfb1), Schizosaccharomyces pombe, UniProt name TFB1_SCHPO, N-terminal PH domain, residues 1-108; 15N-labelled in the NMR titration; Residues of the vector may be left at the N-terminus after thrombin cleavage (surmised); also called spPH; spPH domain; source: E. coli BL21-Gold (DE3), pET15b, purified (His-tag resin, thrombin …)
T1 sequence (looked up): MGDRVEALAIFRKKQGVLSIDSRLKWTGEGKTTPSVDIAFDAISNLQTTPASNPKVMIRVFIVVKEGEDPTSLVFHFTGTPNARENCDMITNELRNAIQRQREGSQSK


Columns and labels:
[1] = target: TFIIH p62 PH (Homo sapiens) (UniProt P32780); settings: cited from earlier work
[2] = target: TFIIH p62 PH (Homo sapiens) (UniProt P32780); settings: cited from earlier work; remark: listed apart in the source
[3] = target: TFIIH Tfb1 PH (Saccharomyces cerevisiae) (UniProt P32776); settings: cited from earlier work
[4] = target: T1, PH domain of fission yeast …; assay: ITC; VP-ITC; syringe 300 uM peptide, cell 2 ml of 30 uM spPH domain; 25 x 20 ul injections; 20 mM potassium phosphate pH 6.8, 20°C; settings: both partners purified

Sequence of TFIIH p62 PH (Homo sapiens) (P32780 1-108): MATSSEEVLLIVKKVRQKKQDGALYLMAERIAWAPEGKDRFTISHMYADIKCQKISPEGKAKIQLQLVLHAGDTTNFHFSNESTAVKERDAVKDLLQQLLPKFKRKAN
Sequence of TFIIEα acidic domain (P29083 378-439): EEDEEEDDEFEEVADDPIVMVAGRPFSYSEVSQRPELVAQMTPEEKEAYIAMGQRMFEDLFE
Sequence of scRad4 acidic string (P14736 76-115): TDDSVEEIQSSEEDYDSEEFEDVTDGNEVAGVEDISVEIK
Sequence of hXPC acidic string (Q01831 109-156): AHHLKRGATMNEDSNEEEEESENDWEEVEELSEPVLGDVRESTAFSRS
Sequence of TFIIH Tfb1 PH (Saccharomyces cerevisiae) (P32776 1-115): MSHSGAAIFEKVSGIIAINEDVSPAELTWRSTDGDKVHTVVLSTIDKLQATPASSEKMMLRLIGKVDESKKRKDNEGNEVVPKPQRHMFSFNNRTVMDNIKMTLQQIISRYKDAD

| Molecule | Kd [4] | also measured |
| --- | --- | --- |
| TFIIEα acidic domain (from UniProt P29083) |  | Kd [1]: 95 nM |
| hXPC acidic string (from UniProt Q01831) |  | Kd [2]: 58 nM |
| scRad4 acidic string (from UniProt P14736) |  | Kd [3]: 50 nM |
| NGFNEDDEDDEDEADFEDV (peptide, UniProt Q9P3W1 416-434, looked up, Tfa1 (homologue of human TFIIEalpha), Schizosaccharomyces pombe, residues 416-434; source: synthetic peptide, bought: GenScript) [spTfa1(416-434) peptide, C-terminal acidic segment of fission yeast Tfa1] | 12.4 ± 6.5 nM |  |

Now from value to molecule, other results behind:

| Kd [4] | Molecule | also measured |
| --- | --- | --- |
| 52.1 ± 13.5 nM | DEDNTYSDDEEWLDLDLGL (peptide, UniProt Q10445 4-22, looked up, Rhp41 (homologue of human XPC and S. cerevisiae Rad4), Schizosaccharomyces pombe, residues 4-22 (holds Trp15, Leu16, Leu18, Leu20, Leu22); source: synthetic peptide, bought: GenScript) [spRhp41(4-22) peptide, N-terminal acidic string of fission yeast Rhp41] |  |
| 148 ± 41.3 nM | DSENVDDEEDDDFLDVTTA (peptide, UniProt Q9P3W1 332-350, looked up, source: synthetic peptide, bought: GenScript) [spTfa1(332-350) peptide, acidic segment of fission yeast Tfa1] |  |

Reference: PMC10345426, “Structural polymorphism of the PH domain in TFIIH” (Bioscience Reports, 2023)
